# Data as given in patent publication US20210032299A1 (Eli Lilly, published 2021).
# Starred links: 1 amine or outer side, 2 acyl side, 3 side chain; linkers in the order of their positions; H or OH if unused. Non-standard residues stand in square brackets, D forms with d. Groups on a side chain read outwards from the residue. No end group written: not given here. *: point of attachment. C18 diacid = O=C(O)CCCCCCCCCCCCCCCCC(=O)*; γGlu = O=C(O)[C@H](CCC(=O)[*:2])N[*:1]; 4Pal = N[C@@H](Cc1ccncc1)C(=O)O; AEEA = NCCOCCOCC(=O)O; Aib = CC(C)(N)C(=O)O
# T1: human glucose-dependent insulinotropic polypeptide (GIP) receptor (human, UniProt P48546 22-466)
# T1 construct: whole, on cells; Assayed as crude membranes of stably transfected CHO cells; also called hGIPR; human GIP receptor
# T1 sequence (looked up): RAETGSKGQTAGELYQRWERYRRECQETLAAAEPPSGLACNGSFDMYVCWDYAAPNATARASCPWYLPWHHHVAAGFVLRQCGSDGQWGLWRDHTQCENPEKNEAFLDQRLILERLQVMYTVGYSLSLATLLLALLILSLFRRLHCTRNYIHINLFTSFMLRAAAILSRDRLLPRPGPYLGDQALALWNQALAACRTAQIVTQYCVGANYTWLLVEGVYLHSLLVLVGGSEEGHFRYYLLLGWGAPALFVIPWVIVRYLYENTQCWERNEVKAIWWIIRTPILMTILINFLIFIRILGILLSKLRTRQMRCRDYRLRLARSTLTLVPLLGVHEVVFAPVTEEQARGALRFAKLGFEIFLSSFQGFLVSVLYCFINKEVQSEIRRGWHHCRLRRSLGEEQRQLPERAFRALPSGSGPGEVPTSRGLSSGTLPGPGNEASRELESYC
# Key:
# [1] = molecular target: T2, human GLP-1 receptor (human, UniProt P43220 24-463); assay: SPA, displacement of [125I]-GLP-1 from hGLP-1R membranes, 0.1% bacitracin
# T2 construct: whole, on cells; Assayed as crude membranes of stably transfected HEK293 cells; also called hGLP1R; hGLP-1R
# Procedure: The binding buffer contains 25 mM HEPES, pH 7.4, 2.5 mM CaCl₂, 1 mM MgCl₂, 0.1% (w/v) bacitracin, 0.003% (w/v) TWEEN®-20, and Roche Complete™ Protease Inhibitors without EDTA.
# (§1) Data are analyzed using four-parameter (curve maximum, curve minimum, […], Hill slope) nonlinear regression routines (Genedata Screener, version 12.0.4, Genedata AG, Basal, Switzerland). […] Values for Kᵢ are reported as the geometric mean, with error expressed as the standard error of the mean (SEM) and n is equal to the number of independent replicates (determined in assays performed on different days). Geometric Means are calculated as follows: […]
# [2] = molecular target: T1, human glucose-dependent insulinotropic …; assay: SPA, displacement of [125I]-GIP from hGIPR membranes, 0.1% bacitracin
# Procedure: The binding buffer contains 25 mM HEPES, pH 7.4, 2.5 mM CaCl₂, 1 mM MgCl₂, 0.1% (w/v) bacitracin, 0.003% (w/v) TWEEN®-20, and Roche Complete™ Protease Inhibitors without EDTA. […] Plates are sealed and mixed on a plate shaker (setting 6) for 1 minute and read with a PerkinElmer Trilux MicroBeta® scintillation counter after 2.5 to 12 hours of incubation/settling time at room temperature.
# as §1
binder,measurement,setting,value
Y[dA]EGTLISDYSILLDKK([AEEA-AEEA-γGlu-C18 diacid])AQ[Aib]DFVNWLLAQGPSSGAPPPS-NH2 (N-terminus assumed; SMILES CC[C@H](C)[C@H](NC(=O)[C@H](CO)NC(=O)[C@H](Cc1ccc(O)cc1)NC(=O)[C@H](CC(=O)O)NC(=O)[C@H](CO)NC(=O)[C@@H](NC(=O)[C@H](CC(C)C)NC(=O)[C@@H](NC(=O)CNC(=O)[C@H](CCC(=O)O)NC(=O)[C@@H](C)NC(=O)[C@@H](N)Cc1ccc(O)cc1)[C@@H](C)O)[C@@H](C)CC)C(=O)N[C@@H](CC(C)C)C(=O)N[C@@H](CC(C)C)C(=O)N[C@@H](CC(=O)O)C(=O)N[C@@H](CCCCN)C(=O)N[C@@H](CCCCNC(=O)COCCOCCNC(=O)COCCOCCNC(=O)CC[C@H](NC(=O)CCCCCCCCCCCCCCCCC(=O)O)C(=O)O)C(=O)N[C@@H](C)C(=O)N[C@@H](CCC(N)=O)C(=O)NC(C)(C)C(=O)N[C@@H](CC(=O)O)C(=O)N[C@@H](Cc1ccccc1)C(=O)N[C@H](C(=O)N[C@@H](CC(N)=O)C(=O)N[C@@H](Cc1c[nH]c2ccccc12)C(=O)N[C@@H](CC(C)C)C(=O)N[C@@H](CC(C)C)C(=O)N[C@@H](C)C(=O)N[C@@H](CCC(N)=O)C(=O)NCC(=O)N1CCC[C@H]1C(=O)N[C@@H](CO)C(=O)N[C@@H](CO)C(=O)NCC(=O)N[C@@H](C)C(=O)N1CCC[C@H]1C(=O)N1CCC[C@H]1C(=O)N1CCC[C@H]1C(=O)N[C@@H](CO)C(N)=O)C(C)C) [Example 32],Ki,[1],85.2 nM
same,Ki,[2],0.0343 nM
Y[Aib]EGTFISDYSI[Aib]LDKK([AEEA-AEEA-γGlu-C18 diacid])HQ[Aib]DFVE[4Pal]LLAGGPSSGAPPPS-NH2 (N-terminus assumed; SMILES CC[C@H](C)[C@H](NC(=O)[C@H](Cc1ccccc1)NC(=O)[C@@H](NC(=O)CNC(=O)[C@H](CCC(=O)O)NC(=O)C(C)(C)NC(=O)[C@@H](N)Cc1ccc(O)cc1)[C@@H](C)O)C(=O)N[C@@H](CO)C(=O)N[C@@H](CC(=O)O)C(=O)N[C@@H](Cc1ccc(O)cc1)C(=O)N[C@@H](CO)C(=O)N[C@H](C(=O)NC(C)(C)C(=O)N[C@@H](CC(C)C)C(=O)N[C@@H](CC(=O)O)C(=O)N[C@@H](CCCCN)C(=O)N[C@@H](CCCCNC(=O)COCCOCCNC(=O)COCCOCCNC(=O)CC[C@H](NC(=O)CCCCCCCCCCCCCCCCC(=O)O)C(=O)O)C(=O)N[C@@H](Cc1c[nH]cn1)C(=O)N[C@@H](CCC(N)=O)C(=O)NC(C)(C)C(=O)N[C@@H](CC(=O)O)C(=O)N[C@@H](Cc1ccccc1)C(=O)N[C@H](C(=O)N[C@@H](CCC(=O)O)C(=O)N[C@@H](Cc1ccncc1)C(=O)N[C@@H](CC(C)C)C(=O)N[C@@H](CC(C)C)C(=O)N[C@@H](C)C(=O)NCC(=O)NCC(=O)N1CCC[C@H]1C(=O)N[C@@H](CO)C(=O)N[C@@H](CO)C(=O)NCC(=O)N[C@@H](C)C(=O)N1CCC[C@H]1C(=O)N1CCC[C@H]1C(=O)N1CCC[C@H]1C(=O)N[C@@H](CO)C(N)=O)C(C)C)[C@@H](C)CC) [Example 24],Ki,[1],729 nM
same,Ki,[2],0.254 nM
